Source: publication PMC7801617 (2021)
No end group written: not given here.

T1: talin-1 R7–R8 fragment, wildtype (residues 1355–1652) (mouse, UniProt P26039 1355-1652)
T1 chain: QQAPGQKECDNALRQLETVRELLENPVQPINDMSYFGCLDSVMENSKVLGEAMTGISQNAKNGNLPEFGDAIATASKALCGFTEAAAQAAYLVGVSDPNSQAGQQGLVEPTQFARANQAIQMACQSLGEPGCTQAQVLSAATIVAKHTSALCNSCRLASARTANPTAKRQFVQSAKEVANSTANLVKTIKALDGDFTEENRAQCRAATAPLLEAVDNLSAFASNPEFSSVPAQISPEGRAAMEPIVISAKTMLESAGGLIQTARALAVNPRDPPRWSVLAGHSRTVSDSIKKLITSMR


Tests used:
Experiment in all cases: FP
[1] = molecular target: talin-1 R7–R8 fragment (residues 1355–1652) with mutation Y1389C (mouse, UniProt P26039 1355-1652, Y1389C)
talin-1 R7–R8 fragment (residues 1355–1652) with mutation Y1389C, sequence (P26039 1355-1652 Y1389C): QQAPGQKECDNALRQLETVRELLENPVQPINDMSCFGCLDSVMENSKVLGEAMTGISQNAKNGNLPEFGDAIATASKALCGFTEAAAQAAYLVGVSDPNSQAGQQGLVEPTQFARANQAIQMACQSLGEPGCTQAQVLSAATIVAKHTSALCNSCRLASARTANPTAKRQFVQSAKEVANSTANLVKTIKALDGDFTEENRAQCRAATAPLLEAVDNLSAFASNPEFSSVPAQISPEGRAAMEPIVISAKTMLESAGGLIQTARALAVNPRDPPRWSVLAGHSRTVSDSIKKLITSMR

[2] = molecular target: T1, talin-1 R7–R8 fragment, wildtype …
[3] = molecular target: talin-1 R7–R8 fragment (residues 1355–1652) with mutation R1368W (mouse, UniProt P26039 1355-1652, R1368W)
talin-1 R7–R8 fragment (residues 1355–1652) with mutation R1368W, sequence (P26039 1355-1652 R1368W): as the sequence (P26039 1355-1652 Y1389C) above, with R14W, C35Y counted along it

Kd [1]	Kd [2]	Kd [3]	Binder
0.35 µM	0.35 µM	0.39 µM	PYFVETPYGFQLDLDFVKYVDDIQKGNTIKKLNIQKRRKC (BODIPY or Fluorescein dye coupled via the C-terminal cysteine residue) [KANK1 (30–68) peptide]
3.6 µM	3.6 µM	3.3 µM	SEDIDQMFSTLLGEMDLLTQSLGVDTC (also: BODIPY or Fluorescein dye coupled via C-terminal Cys) [RIAM (4–30) peptide]
